The values that follow come from patent publication US20160271230A1 (UNIVERSITY HEALTH NETWORK, published 2016).

No end group written: not given here.

Test [1] deals with T1, His-tagged 6FNIII-domain of Neogenin (Gallus gallus, UniProt Q90610 429-1036).
T1 construct: also called His-6FNIII; His-FNIII; not shown: His tag
T1 sequence: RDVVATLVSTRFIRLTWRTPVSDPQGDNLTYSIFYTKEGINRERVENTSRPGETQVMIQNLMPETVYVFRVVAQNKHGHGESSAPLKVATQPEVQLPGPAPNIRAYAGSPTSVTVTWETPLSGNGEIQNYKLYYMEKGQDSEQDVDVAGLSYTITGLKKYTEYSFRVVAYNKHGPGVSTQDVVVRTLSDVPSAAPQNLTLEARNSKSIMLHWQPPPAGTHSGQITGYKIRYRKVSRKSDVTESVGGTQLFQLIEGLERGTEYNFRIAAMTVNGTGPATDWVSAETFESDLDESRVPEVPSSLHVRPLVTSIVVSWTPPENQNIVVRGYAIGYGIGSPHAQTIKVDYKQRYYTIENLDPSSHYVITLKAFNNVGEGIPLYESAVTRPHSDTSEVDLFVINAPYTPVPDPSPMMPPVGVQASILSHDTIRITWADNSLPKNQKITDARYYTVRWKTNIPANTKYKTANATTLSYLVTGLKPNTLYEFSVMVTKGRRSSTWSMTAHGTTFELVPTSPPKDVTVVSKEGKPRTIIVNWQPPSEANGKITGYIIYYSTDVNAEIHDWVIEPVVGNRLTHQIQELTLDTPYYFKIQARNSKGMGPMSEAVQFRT
The experiment in a line: complementary plate assay, RGMa peptides fused with AP (FIG. 9). How it is done: (§1) (A) Different RGMa-AP proteins were incubated on wells coated with the 4Ig 6FNIII or BSA. […] Data were average±SEM (n=3 independent experiments), *p<0.005. (B) Quantification of a binding assay where 4Ig-AP and 6FNIII-AP proteins were assayed on wells coated with proteins from different RGMa regions. […] C-RGMa proteins and full length RGMa only bound 6FNIII. Data were average±SEM (n=3 independent experiments), *p<0.005. […] Quantification of a binding assay where N-RGMa-AP was assayed on wells coated with proteins DCC-4Ig and Neogenin-4Ig. In this experiment Neogenin-4Ig but not DCC-4Ig interacted with N-Raft-AP. Data were average±SEM (n=4 independent experiments), *p<0.005. (D) Cis-interaction between the 4Ig domain of Neogenin and N-Raft is required for localization of Neogenin in lipid rafts. HEK-293 cells were transfected with Neogenin and RGMa constructs. BMP2 (100 nM) was added to the medium 1 hour before cells were collected. Western blotting was performed following lipid raft fractionation. Flotillin was used as a marker for lipid raft fractions, whereas the transferrin receptor (TfR) was used as a marker for heavy membrane-fractions. Every experiment was repeated twice. […] In the first set of experiments, cells were only transfected with Neogenin. […]

The target in test [2] is T2, His-tagged 4Ig-domain of Neogenin (Gallus gallus, UniProt Q90610 1-383).
T2 construct: Secreted from transfected cells, purified on Ni-NTA; also called His-4Ig; Neogenin-4Ig; not shown: 6-His tag at the N-terminus; myc and 6-His tags of the pSectag 2B vector at the C-terminus
T2 sequence: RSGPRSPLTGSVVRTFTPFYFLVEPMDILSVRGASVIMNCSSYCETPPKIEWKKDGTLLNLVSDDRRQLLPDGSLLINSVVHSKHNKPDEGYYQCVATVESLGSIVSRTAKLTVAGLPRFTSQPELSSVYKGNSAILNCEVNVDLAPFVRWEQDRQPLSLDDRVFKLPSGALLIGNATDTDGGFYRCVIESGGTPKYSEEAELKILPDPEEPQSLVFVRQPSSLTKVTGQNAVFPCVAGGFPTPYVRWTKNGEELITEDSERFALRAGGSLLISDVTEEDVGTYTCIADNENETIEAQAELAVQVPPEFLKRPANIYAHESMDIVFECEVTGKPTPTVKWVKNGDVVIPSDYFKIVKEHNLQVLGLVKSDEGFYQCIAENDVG
The experiment in a line: complementary plate assay, RGMa peptides fused with AP on coated Neogenin domains (FIG. 9). As for the experimental part:
as §1

Test [3] addresses T1, His-tagged 6FNIII-domain of Neogenin. The test is described as above. As for the experimental part: as §1

B1: N-inh fused with alkaline phosphatase (peptide)
chain: GDLAYHSAVHGIDDLMVQHNCSKDGPTSQPRLRTLPP
modifications: also: alkaline phosphatase tag, sequence and position not given here
notes: also called N-inh-AP; not shown: alkaline phosphatase (AP)
In the case of B1, the binding result was “binds” in test [1] and “no binding” in test [2].

B2: N-Raft fused with alkaline phosphatase (peptide)
chain: SPCKILKCNSEFWAATSGSHHLGAEETPEFCTALRAYAHCTRRTAR
modifications: cysteine pairing not given here; also: alkaline phosphatase tag, sequence and position not given here
notes: also called N-Raft-AP; N-RGMa-AP; not shown: alkaline phosphatase tag of the Psectag2B-AP plasmid
For the molecule B2, the binding result in test [3] is reported as “no binding”.
